The values that follow come from paper PMC11063116.

B1: BvHSS (homospermidine synthase) (Blastochloris viridis) (protein)
chain: MTDWPVYHRIDGPIVMIGFGSIGRGTLPLIERHFAFDRSKLVVIDPSDEARKLAEARGVRFIQQAVTRDNYRELLVPLLTAGPGQGFCVNLSVDTSSLDIMELARENGALYIDTVVEPWLGFYFDPDLKPEARSNYALRETVLAARRNKPGGTTAVSCCGANPGMVSWFVKQALVNLAADLGVTGEEPTTREEWARLAMDLGVKGIHIAERDTQRASFPKPFDVFVNTWSVEGFVSEGLQPAELGWGTFERWMPDNARGHDSGCGAGIYLLQPGANTRVRSWTPTAMAQYGFLVTHNESISIADFLTVRDAAGQAVYRPTCHYAYHPCNDAVLSLHEMFGSGKRQSDWRILDETEIVDGIDELGVLLYGHGKNAYWYGSQLSIEETRRIAPDQNATGLQVSSAVLAGMVWALENPNAGIVEADDLDFRRCLEVQTPYLGPVVGVYTDWTPLAGRPGLFPEDIDTSDPWQFRNVLVRD
B2: BvHSS (homospermidine synthase) (Blastochloris viridis; D361E) (protein)
chain: MTDWPVYHRIDGPIVMIGFGSIGRGTLPLIERHFAFDRSKLVVIDPSDEARKLAEARGVRFIQQAVTRDNYRELLVPLLTAGPGQGFCVNLSVDTSSLDIMELARENGALYIDTVVEPWLGFYFDPDLKPEARSNYALRETVLAARRNKPGGTTAVSCCGANPGMVSWFVKQALVNLAADLGVTGEEPTTREEWARLAMDLGVKGIHIAERDTQRASFPKPFDVFVNTWSVEGFVSEGLQPAELGWGTFERWMPDNARGHDSGCGAGIYLLQPGANTRVRSWTPTAMAQYGFLVTHNESISIADFLTVRDAAGQAVYRPTCHYAYHPCNDAVLSLHEMFGSGKRQSDWRILDETEIVDGIEELGVLLYGHGKNAYWYGSQLSIEETRRIAPDQNATGLQVSSAVLAGMVWALENPNAGIVEADDLDFRRCLEVQTPYLGPVVGVYTDWTPLAGRPGLFPEDIDTSDPWQFRNVLVRD
B3: BvHSS (homospermidine synthase) (Blastochloris viridis; D361E/E232D) (protein)
chain: MTDWPVYHRIDGPIVMIGFGSIGRGTLPLIERHFAFDRSKLVVIDPSDEARKLAEARGVRFIQQAVTRDNYRELLVPLLTAGPGQGFCVNLSVDTSSLDIMELARENGALYIDTVVEPWLGFYFDPDLKPEARSNYALRETVLAARRNKPGGTTAVSCCGANPGMVSWFVKQALVNLAADLGVTGEEPTTREEWARLAMDLGVKGIHIAERDTQRASFPKPFDVFVNTWSVDGFVSEGLQPAELGWGTFERWMPDNARGHDSGCGAGIYLLQPGANTRVRSWTPTAMAQYGFLVTHNESISIADFLTVRDAAGQAVYRPTCHYAYHPCNDAVLSLHEMFGSGKRQSDWRILDETEIVDGIEELGVLLYGHGKNAYWYGSQLSIEETRRIAPDQNATGLQVSSAVLAGMVWALENPNAGIVEADDLDFRRCLEVQTPYLGPVVGVYTDWTPLAGRPGLFPEDIDTSDPWQFRNVLVRD

Substrate in this data set: NCCCN
In words: purified protein. Particulars: 2 mM putrescine, 0.6 mM NAD+, 100 mM Tris-HCl pH 9, 50 °C.
The Km is the concentration of substrate that gives half-maximal velocity. A word on the kcat: it is the maximal rate divided by the concentration of active sites. Usually kcat/Km stands for the second-order rate constant that governs catalysis at low substrate concentration. With B1, the Km was 490 ± 30 µM, the kcat is 13.6 s⁻¹ and the catalytic efficiency (kcat/Km) came out at 27800 M⁻¹ s⁻¹.

Turning to B2, the Km stood at 430 ± 60 µM, the kcat turned out to be 19.3 s⁻¹ and the specificity constant (kcat/Km) was 45000 M⁻¹ s⁻¹.

With B3, the Km stood at 310 ± 20 µM, the kcat was 21.1 s⁻¹ and the kcat/Km was 68000 M⁻¹ s⁻¹.
